Results taken from publication PMC13379236 (Cell reports, 2026).
“Also recorded” adds a separate entry of the source.

Tested on: ZYG11B
Type: cell-based, human

B1: NLRP1 Gly/N-degron: C-terminal fragment generated by 3C cleavage, which exposes the Gly/N-degron, begins at glycine-131 (protein)
chain: GSERRVLRQLPDTSGRRWREISASLLYQALPSSPDHESPSQESPNAPTSTAVLGSWGSPPQPSLAPREQEAPGTQWPLDETSGIYYTEIREREREKSEKGRPPWAAVVGTPPQAHTSLQPHHHPWEPSVRESLCSTWPWKNEDFNQKFTQLLLLQRPHPRSQDPLVKRSWPDYVEENRGHLIEIRDLFGPGLDTQEPRIVILQGAAGIGKSTLARQVKEAWGRGQLYGDRFQHVFYFSCRELAQSKVVSLAELIGKDGTATPAPIRQILSRPERLLFILDGVDEPGWVLQEPSSELCLHWSQPQPADALLGSLLGKTILPEASFLITARTTALQNLIPSLEQARWVEVLGFSESSRKEYFYRYFTDERQAIRAFRLVKSNKELWALCLVPWVSWLACTCLMQQMKRKEKLTLTSKTTTTLCLHYLAQALQAQPLGPQLRDLCSLAAEGIWQKKTLFSPDDLRKHGLDGAIISTFLKMGILQEHPIPLSYSFIHLCFQEFFAAMSYVLEDEKGRGKHSNCIIDLEKTLEAYGIHGLFGASTTRFLLGLLSDEGEREMENIFHCRLSQGRNLMQWVPSLQLLLQPHSLESLHCLYETRNKTFLTQVMAHFEEMGMCVETDMELLVCTFCIKFSRHVKKLQLIEGRQHRSTWSPTMVVLFRWVPVTDAYWQILFSVLKVTRNLKELDLSGNSLSHSAVKSLCKTLRRPRCLLETLRLAGCGLTAEDCKDLAFGLRANQTLTELDLSFNVLTDAGAKHLCQRLRQPSCKLQRLQLVSCGLTSDCCQDLASVLSASPSLKELDLQQNNLDDVGVRLLCEGLRHPACKLIRLGLDQTTLSDEMRQELRALEQEKPQLLIFSRRKPSVMTPTEGLDTGEMSNSTSSLKRQRLGSERAASHVAQANLKLLDVSKIFPIAEIAEESSPEVVPVELLCVPSPASQGDLHTKPLGTDDDFWGPTGPVATEVVDKEKNLYRVHFPVAGSYRWPNTGLCFVMREAVTVEIEFCVWDQFLGEINPQHSWMVAGPLLDIKAEPGAVEAVHLPHFVALQGGHVDTSLFQMAHFKEEGMLLEKPARVELHHIVLENPSFSPLGVLLKMIHNALRFIPVTSVVLLYHRVHPEEVTFHLYLIPSDCSIRKAIDDLEMKFQFVRIHKPPPLTPLYMGCRYTVSGSGSGMLEILPKELELCYRSPGEDQLFSEFYVGHLGSGIRLQVKDKKDETLVWEALVKPGDLMPATTLIPPARIAVPSPLDAPQLLHFVDQYREQLIARVTSVEVVLDKLHGQVLSQEQYERVLAENTRPSQMRKLFSLSQSWDRKCKDGLYQALKETHPHLIMELWEKGSKKGLLPLSS
- binding to ZYG11B Extended Surface I mutants: decreases the binding
- binding to ZYG11B Gly-pocket mutants: abolishes the binding
- binding to ZYG11B R466A (Extended Surface II): relatively strong reduction

B2: E133K: E133K mutation of NLRP1 (residue E3 of the Gly/N-degron) (protein)
chain: GSKRRVLRQLPDTSGRRWREISASLLYQALPSSPDHESPSQESPNAPTSTAVLGSWGSPPQPSLAPREQEAPGTQWPLDETSGIYYTEIREREREKSEKGRPPWAAVVGTPPQAHTSLQPHHHPWEPSVRESLCSTWPWKNEDFNQKFTQLLLLQRPHPRSQDPLVKRSWPDYVEENRGHLIEIRDLFGPGLDTQEPRIVILQGAAGIGKSTLARQVKEAWGRGQLYGDRFQHVFYFSCRELAQSKVVSLAELIGKDGTATPAPIRQILSRPERLLFILDGVDEPGWVLQEPSSELCLHWSQPQPADALLGSLLGKTILPEASFLITARTTALQNLIPSLEQARWVEVLGFSESSRKEYFYRYFTDERQAIRAFRLVKSNKELWALCLVPWVSWLACTCLMQQMKRKEKLTLTSKTTTTLCLHYLAQALQAQPLGPQLRDLCSLAAEGIWQKKTLFSPDDLRKHGLDGAIISTFLKMGILQEHPIPLSYSFIHLCFQEFFAAMSYVLEDEKGRGKHSNCIIDLEKTLEAYGIHGLFGASTTRFLLGLLSDEGEREMENIFHCRLSQGRNLMQWVPSLQLLLQPHSLESLHCLYETRNKTFLTQVMAHFEEMGMCVETDMELLVCTFCIKFSRHVKKLQLIEGRQHRSTWSPTMVVLFRWVPVTDAYWQILFSVLKVTRNLKELDLSGNSLSHSAVKSLCKTLRRPRCLLETLRLAGCGLTAEDCKDLAFGLRANQTLTELDLSFNVLTDAGAKHLCQRLRQPSCKLQRLQLVSCGLTSDCCQDLASVLSASPSLKELDLQQNNLDDVGVRLLCEGLRHPACKLIRLGLDQTTLSDEMRQELRALEQEKPQLLIFSRRKPSVMTPTEGLDTGEMSNSTSSLKRQRLGSERAASHVAQANLKLLDVSKIFPIAEIAEESSPEVVPVELLCVPSPASQGDLHTKPLGTDDDFWGPTGPVATEVVDKEKNLYRVHFPVAGSYRWPNTGLCFVMREAVTVEIEFCVWDQFLGEINPQHSWMVAGPLLDIKAEPGAVEAVHLPHFVALQGGHVDTSLFQMAHFKEEGMLLEKPARVELHHIVLENPSFSPLGVLLKMIHNALRFIPVTSVVLLYHRVHPEEVTFHLYLIPSDCSIRKAIDDLEMKFQFVRIHKPPPLTPLYMGCRYTVSGSGSGMLEILPKELELCYRSPGEDQLFSEFYVGHLGSGIRLQVKDKKDETLVWEALVKPGDLMPATTLIPPARIAVPSPLDAPQLLHFVDQYREQLIARVTSVEVVLDKLHGQVLSQEQYERVLAENTRPSQMRKLFSLSQSWDRKCKDGLYQALKETHPHLIMELWEKGSKKGLLPLSS
- interaction of NLRP1 mutants with ZYG11B: decreases the interaction; also recorded: reduced binding to ZYG11B
